Data taken from US20170088624A1 (Janssen / Centocor, published 2017).

Key:
cyno CD40 (SPR analyte) = molecular target: T1, cyno CD40 (SPR analyte) (Macaca fascicularis (cynomolgus), UniProt P25942 21-193 (human entry), limits assumed); test: SPR ProteOn XPR36, mAb captured by anti-human IgG Fc, cyno CD40 as analyte, 25 C
T1 construct: also called cCD40-ECD
T1 chain: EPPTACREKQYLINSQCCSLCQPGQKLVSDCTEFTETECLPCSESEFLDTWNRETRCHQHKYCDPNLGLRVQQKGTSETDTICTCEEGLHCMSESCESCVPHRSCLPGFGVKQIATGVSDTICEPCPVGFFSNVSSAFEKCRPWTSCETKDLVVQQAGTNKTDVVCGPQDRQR
Method: (§1) Affinity measurements were performed using Surface Plasmon Resonance (SPR) using a ProteOn XPR36 system (BioRad). […] Approximately 5000 RU (response units) of mAbs were immobilized. The kinetic experiments were performed at 25° C. in running buffer (DPBS+0.01% P20+100 μg/ml BSA). To perform kinetic experiments, 200 RU of mAbs were captured followed by injections of analytes (human or cyno CD40) at 5 concentrations (in a 4-fold serial dilution). The association phase was monitored for 3 minutes at 50 μL/min, then followed by 15 minutes of buffer flow (dissociation phase). The chip surface was regenerated with two 18 second pulses of 100 mM H₃PO₄ (Sigma, Cat#7961) at 100 μL/min.
(§2) The collected data were processed using ProteOn Manager software. First, the data was corrected for background using inter-spots. Then, double reference subtraction of the data was performed by using the buffer injection for analyte injections. The kinetic analysis of the data was performed using a Langmuir 1:1 binding model. The result for each mAb was reported in the format of Ka (On-rate), Kd (Off-rate) and KD (equilibrium dissociation constant).

human CD40 (SPR analyte) = molecular target: T2, human CD40 (SPR analyte) (human, UniProt P25942 21-193); test: SPR ProteOn XPR36, mAb captured by anti-human IgG Fc, CD40 as analyte, 25 C
T2 construct: also called huCD40-ECD
Method: as §1, §2
The parameters reported in this table were obtained from a 1:1 Langmuir binding model for all samples. Affinity, KD=kd/ka.

[1] = molecular target: T3, Full length human CD40 (huCD40) on cells (human, UniProt P25942 21-277); test: flow cytometry, human mature DCs
T3 construct: CD40 on human mature DCs, human B cells, Raji cells and HEK-Blue CD40L cells (stably expressing human CD40); also called TNFRSF5
Method: (§3) Human monocytes were isolated from either frozen/fresh PBMC using CD14 negative isolation kit per manufacturer's protocol (MACS Miltenyi). Cyno monocytes were isolated from fresh PBMC using CD14 positive isolation kit per manufacturer's protocol (MACS Miltenyi). To generate DCs, monocytes were cultured for 5 days in complete media RPMI (Invitrogen) in the presence of 100 ng/ml human GM-CSF and human IL-4 (Peprotech) and media was replenished every 2 days. On day 5, DCs were stimulated with 100 ng/ml LPS (Sigma) for 24 hours. Cells were then stained with each of the tested CD40 antibody at different concentration in flow cytometry buffer (PBS+1% FBS; BD Bioscience) in 100 μl volume for 30 minutes on ice followed with two washes with flow buffer. Cells were then stained for additional 30 minutes on ice with APC-conjugated anti human IgG (Jackson ImmunoResearch) at the recommended dilution 1:100 and washed twice with flow buffer. Cells were analyzed for percent positive and Mean Fluorescence Intensity (MFI) to determine the antibody binding using Fortessa (BD Bioscience).
(§4) The experiments were conducted using assays described above. 20 antibodies were characterized further based on their binding to human DCs, cyno DCs, Raji cells and HEK-Blue™ CD40L cells.

[2] = molecular target: T4, Macaca fascicularis (cyno) CD40 (cCD40) on cells (Macaca fascicularis (cynomolgus), UniProt P25942 21-277 (human entry)); test: flow cytometry, cyno mature DCs
T4 construct: CD40 on cyno mature DCs
T4 chain: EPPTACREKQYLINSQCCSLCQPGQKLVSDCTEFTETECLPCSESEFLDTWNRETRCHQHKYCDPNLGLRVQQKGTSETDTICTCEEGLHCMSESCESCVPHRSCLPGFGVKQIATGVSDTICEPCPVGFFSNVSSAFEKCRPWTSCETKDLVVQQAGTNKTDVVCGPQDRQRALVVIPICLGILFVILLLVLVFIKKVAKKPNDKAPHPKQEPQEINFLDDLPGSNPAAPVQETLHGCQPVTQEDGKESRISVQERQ
Method: as §3, §4

[3] = molecular target: T3, Full length human CD40 (huCD40) on cells; test: cell-based or functional assay
[4] = molecular target: T3, Full length human CD40 (huCD40) on cells; test: cell-based or functional assay; remark: listed apart in the source
[5] = molecular target: T3, Full length human CD40 (huCD40) on cells; test: flow cytometry, HEK-Blue CD40L cells
[6] = molecular target: T3, Full length human CD40 (huCD40) on cells; test: flow cytometry, Raji cells

B1: C40M66 (antibody, human IgG1, kappa, V domains shown)
VH: QVQLVQSGAEVKKPGSSVKVSCKASGGTFSSYAISWVRQAPGQGLEWMGGIIPIFGTANYAQKFQGRVTITADESTSTAYMELSSLRSEDTAVYYCARVRYSAWYRDSLDYWGQGTLVTVSS
VL: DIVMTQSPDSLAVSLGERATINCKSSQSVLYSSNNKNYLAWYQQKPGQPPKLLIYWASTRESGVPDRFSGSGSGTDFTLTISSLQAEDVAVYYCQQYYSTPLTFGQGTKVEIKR
notes: Full-length IgG1/kappa; from phage display
- Kd (cyno CD40 (SPR analyte)): 1.64 nM
- koff (cyno CD40 (SPR analyte)): 0.000577 s⁻¹
- kon (cyno CD40 (SPR analyte)): 352000 M⁻¹ s⁻¹
- Kd (human CD40 (SPR analyte)): 3.05 nM
- koff (human CD40 (SPR analyte)): 0.00116 s⁻¹
- kon (human CD40 (SPR analyte)): 378000 M⁻¹ s⁻¹
- EC50 [1]: 202 ng/mL
- EC50 [2]: 48.3 ng/mL
- DC EC50, CD80 surface expression, with cross-linker [3]: 158 ng/mL
- DC EC50, CD83 surface expression, with cross-linker [3]: 175 ng/mL
- DC EC50, CD86 surface expression, with cross-linker [3]: 423 ng/mL
- DC EC50, HLA-DR surface expression, with cross-linker [3]: 39.4 ng/mL
- B cells EC50, CD23 surface expression, with cross-linker [4]: 41.4 ng/mL
- B cells EC50, CD80 surface expression, with cross-linker [4]: 5.11 ng/mL
- B cells EC50, CD83 surface expression, with cross-linker [4]: 1.82 ng/mL
- B cells EC50, CD86 surface expression, with cross-linker [4]: 2.46 ng/mL
- B cells EC50, HLA-DR surface expression, with cross-linker [4]: 1.08 ng/mL
- EC50 [5]: 169 ng/mL
- EC50 [6]: 73 ng/mL

B2: C40M12 (antibody, human IgG1, lambda, V domains shown)
VH: EVQLVESGGGLVQPGGSLRLSCAASGFTFGSYAMSWVRQAPGKGLEWVSVISDSGGRTYYADSVKGRFTISRDYSKNTLYLQMNSLRAEDTAVYYCAKEGGDYYYYGMDVWGQGTTVTVSS
VL: SYELTQPPSVSVSPGQTASIICSGDKLGDKYVCWYQQKPGQSPVVVIYHDNKRPSGIPERFSGSNSGNTATLTISGTQAMDEADYYCQVWDSSTVVFGGGTKLTVLG
notes: Full-length IgG1/lambda; from OmniRat (OMT)
- Kd (cyno CD40 (SPR analyte)): 0.243 nM
- koff (cyno CD40 (SPR analyte)): 0.000441 s⁻¹
- kon (cyno CD40 (SPR analyte)): 1.81e+06 M⁻¹ s⁻¹
- Kd (human CD40 (SPR analyte)): 0.136 nM
- koff (human CD40 (SPR analyte)): 0.000176 s⁻¹
- kon (human CD40 (SPR analyte)): 1.3e+06 M⁻¹ s⁻¹
- EC50 [1]: 298 ng/mL
- EC50 [2]: 47.4 ng/mL
- DC EC50, CD80 surface expression, with cross-linker [3]: 0.00393 ng/mL
- DC EC50, CD83 surface expression, with cross-linker [3]: 332 ng/mL
- DC EC50, CD86 surface expression, with cross-linker [3]: 502 ng/mL
- DC EC50, HLA-DR surface expression, with cross-linker [3]: 301 ng/mL
- B cells EC50, CD23 surface expression, with cross-linker [4]: 125000 ng/mL
- B cells EC50, CD80 surface expression, with cross-linker [4]: 6.23 ng/mL
- B cells EC50, CD83 surface expression, with cross-linker [4]: 2.84 ng/mL
- B cells EC50, CD86 surface expression, with cross-linker [4]: 2.28 ng/mL
- B cells EC50, HLA-DR surface expression, with cross-linker [4]: 4.27 ng/mL
- EC50 [5]: 112 ng/mL
- EC50 [6]: 29.9 ng/mL

B3: C40M17 (antibody, human IgG1, lambda, V domains shown)
VH: EVQLVESGGGLVQPGGSLRLSCAASGFTFSSYAMSWVRQAPGRGLEWVSTINNSGGGTYYADSVKGRFTISRDNSKNTLYLHMNSLRAEDTAVYYCAKEGGKYYYYAMDVWGQGTTVTVSS
VL: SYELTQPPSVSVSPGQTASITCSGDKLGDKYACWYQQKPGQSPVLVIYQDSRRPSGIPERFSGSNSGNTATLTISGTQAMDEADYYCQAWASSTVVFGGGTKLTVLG
notes: as for B2
- Kd (cyno CD40 (SPR analyte)): 0.0368 nM
- koff (cyno CD40 (SPR analyte)): 0.000157 s⁻¹
- kon (cyno CD40 (SPR analyte)): 4.27e+06 M⁻¹ s⁻¹
- Kd (human CD40 (SPR analyte)): 0.0294 nM
- koff (human CD40 (SPR analyte)): 8.06e-05 s⁻¹
- kon (human CD40 (SPR analyte)): 2.74e+06 M⁻¹ s⁻¹
- EC50 [1]: 127 ng/mL
- EC50 [2]: 53.7 ng/mL
- DC EC50, CD80 surface expression, with cross-linker [3]: 36 ng/mL
- DC EC50, CD83 surface expression, with cross-linker [3]: 306 ng/mL
- DC EC50, CD86 surface expression, with cross-linker [3]: 33 ng/mL
- B cells EC50, CD23 surface expression, with cross-linker [4]: 1.95 ng/mL
- B cells EC50, CD80 surface expression, with cross-linker [4]: 0.879 ng/mL
- B cells EC50, CD83 surface expression, with cross-linker [4]: 0.838 ng/mL
- B cells EC50, CD86 surface expression, with cross-linker [4]: 4.57 ng/mL
- B cells EC50, HLA-DR surface expression, with cross-linker [4]: 1.57 ng/mL
- EC50 [5]: 75.1 ng/mL
- EC50 [6]: 73.9 ng/mL

B4: C40M67 (antibody, human IgG1, kappa, V domains shown)
VH: EVQLLESGGGLVQPGGSLRLSCAASGFTFSDYAMNWVRQAPGKGLEWVSGIKSGGSSKYYADSVKGRFTISRDNSKNTLYLQMNSLRAEDTAVYYCAKHVDFYRALDYWGQGTLVTVSS
VL: EIVLTQSPGTLSLSPGERATLSCRASQSVKNSSLAWYQQKPGQAPRLLIYTASSRATGIPDRFSGSGSGTDFTLTISRLEPEDFAVYYCQQSSAPPWTFGQGTKVEIKR
notes: as for B1
- Kd (cyno CD40 (SPR analyte)): 1.85 nM
- koff (cyno CD40 (SPR analyte)): 0.000341 s⁻¹
- kon (cyno CD40 (SPR analyte)): 184000 M⁻¹ s⁻¹
- Kd (human CD40 (SPR analyte)): 1.91 nM
- koff (human CD40 (SPR analyte)): 0.00031 s⁻¹
- kon (human CD40 (SPR analyte)): 163000 M⁻¹ s⁻¹
- EC50 [1]: 766 ng/mL
- EC50 [2]: 327 ng/mL
- DC EC50, CD80 surface expression, with cross-linker [3]: 49.9 ng/mL
- DC EC50, CD83 surface expression, with cross-linker [3]: 127 ng/mL
- DC EC50, CD86 surface expression, with cross-linker [3]: 202 ng/mL
- DC EC50, HLA-DR surface expression, with cross-linker [3]: 50.7 ng/mL
- B cells EC50, CD23 surface expression, with cross-linker [4]: 4.17 ng/mL
- B cells EC50, CD80 surface expression, with cross-linker [4]: 3.32 ng/mL
- B cells EC50, CD83 surface expression, with cross-linker [4]: 1.46 ng/mL
- B cells EC50, CD86 surface expression, with cross-linker [4]: 2.26 ng/mL
- B cells EC50, HLA-DR surface expression, with cross-linker [4]: 0.792 ng/mL
- EC50 [5]: 550 ng/mL
- EC50 [6]: 247 ng/mL

B5: C40M59 (antibody, human IgG1, kappa, V domains shown)
VH: QVQLVQSGAEVKKPGSSVKVSCKASGGTFSSYWISWVRQAPGQGLEWMGYIIPISGTARYAQKFQGRVTITADESTSTAYMELSSLRSEDTAVYYCAREPGYSSGLSVDYFDYWGQGTLVTVSS
VL: not shown
notes: as for B1
- Kd (cyno CD40 (SPR analyte)): 6.92 nM
- koff (cyno CD40 (SPR analyte)): 0.000995 s⁻¹
- kon (cyno CD40 (SPR analyte)): 144000 M⁻¹ s⁻¹
- Kd (human CD40 (SPR analyte)): 9 nM
- koff (human CD40 (SPR analyte)): 0.00106 s⁻¹
- kon (human CD40 (SPR analyte)): 118000 M⁻¹ s⁻¹
- EC50 [1]: 826 ng/mL
- EC50 [2]: 74 ng/mL
- DC EC50, CD80 surface expression, with cross-linker [3]: 0.342 ng/mL
- DC EC50, CD83 surface expression, with cross-linker [3]: 276 ng/mL
- DC EC50, CD86 surface expression, with cross-linker [3]: 9.79 ng/mL
- DC EC50, HLA-DR surface expression, with cross-linker [3]: 53.6 ng/mL
- B cells EC50, CD23 surface expression, with cross-linker [4]: 1240 ng/mL
- B cells EC50, CD80 surface expression, with cross-linker [4]: 10.6 ng/mL
- B cells EC50, CD83 surface expression, with cross-linker [4]: 10.8 ng/mL
- B cells EC50, CD86 surface expression, with cross-linker [4]: 15.4 ng/mL
- B cells EC50, HLA-DR surface expression, with cross-linker [4]: 4.84 ng/mL
- EC50 [5]: 354 ng/mL
- EC50 [6]: 125 ng/mL
